Data set [1] is described as follows: Constant-force (CF) single-molecule optical tweezers folding assay of guanine-aptamer RNAs in guanine buffer. Type of data set: physicochemical. To be noted: for Folding rate kf / Transition distance ΔX / Unfolding rate ku / ΔG (0): 200 nM G; for ΔG (0): zero force. The text has this: The aptamer folding was monitored in real time using a constant-force (CF) assay. Equilibrium sampling techniques provide unprecedented insights into the rare events in the course of folding that are otherwise difficult to identify. The technique also allows for determination of the kinetic rates that has not been fully investigated in the guanine riboswitch. The relative dynamics of the helices have been investigated in ensemble and smFRET experiments, which indicated a non-dynamic P1-P3, upon which the P2 helix switches conformations. As shown in FIG. 6A (left panel), the RNA oscillated between the linear and the hairpin conformations (E↔D↔C) at 13 pN. The distances ΔXED=7.1±0.4 nm and ΔXDC=7.9±0.4 nm correspond to the folding of a 17±1 nt (P2) and 19±1 nt (P3) respectively (FIGS. 7A-B). The conversion of distances to nucleotides in CF assay are described in Table 2.
A miniaturized dual beam optical tweezers instrument was constructed with a sampling rate of 0.4, 4 and 40 kHz. Typically, in the tweezers set up (FIGS. 2A-E), a single-molecule of RNA is held between two beads via ˜550 nucleotide (nt) long Handles A and B. Preparation of Handles and the RNA is described in the section above. The streptavidin coated polystyrene bead (diameter 1.5-1.9 μm, Spherotech Inc.) is fixed on a micropipette via suction, and the anti-digoxigenin coated bead (diameter 4.0-4.9 μm, Spherotech Inc.) is held in the dual counter-propagating laser beam. The trap stiffness, K is measured at 0.04-0.06 pN/nm from the power spectrum analysis of the Brownian motion of the trapped bead. For power spectrum analysis, a polystyrene bead with diameter ˜4.6 μm is trapped in the counter-propagating laser beam in aqueous buffer with a fixed trap position. […] The average from 10 beads yielded K˜0.049±0.0008 pN/nm, and the stoke's drag coefficient, y=0.0364±0.0002 pN. s/μm. […] However, the autocorrelation time (τ0) defined as the τ1=1/2πfc as described by Zoldak et al., “Ultrafast folding kinetics and cooperativity of villin headpiece in single-molecule force spectroscopy”. Proc. Natl. Acad. Sci. U.S.A 110, 18156 (2013) sets the detection limit for the observable kinetics, which is different from the sampling frequencies. […] The ACF for the time series of force signal, Fi, with sampling rate δ and N data points, is calculated as,
In a constant-force (CF) experiment, the RNA is held at a preset force through feedback control. The preset force typically fluctuated around the mean with a standard deviation ±0.15 pN. In this mode, data is recorded from 4-40 kHz to capture the fast intermediates. The plots are shown as extension vs. time (as in FIG. 6A). In force-jump (FJ) assay, the force is suddenly jumped from one force to another, and then held constant thereafter, as shown in FIGS. 23A-B.
All FR, CF and FJ experiments were carried out at an ambient temperature, 25±0.5° C. The buffer in the microfluidics contained 10 mM Tris-HCl, pH 7.5 at 25° C., 250 mM NaCl, 3 mM MgCl2, and purine concentrations as indicated in wild-type aptamer. Unless stated otherwise, Mg^2+ concentration in the buffer was maintained at 3 mM in all experiments. The buffer in mutant m1 contained 5 mm Mg^2+ and 1 μM G, and in m3 contained 5 mM Mg^2+ and 200 nM Guanine. For the remaining m2, m4, m5 and m6 mutants, the buffer in single-molecule experiments was supplemented only with 3 mM Mg^2+ and 200 nM Guanine.
In the force-ramp experiment, the trap was moved away (pull cycle) from the micropipette at 200 nm/sec, which corresponded to a loading rate of 7-8 pN/sec. This movement of the trap exerted a tension at the ends of the tethered RNA aptamer. […] In the constant-force (CF) experiment, the RNA was held at a preset force (FIG. 6A). The loading rate in CF experiments was zero. The preset force typically fluctuated around the mean with standard deviation ±0.15 pN. […]

Data set [2] in a line: Isothermal titration calorimetry (ITC). Type of data set: binding. How it is done:
For ITC experiments, wild-type G-aptamer and the mutant RNAs were synthesized by in vitro transcription of the DNA template and purified by denaturing polyacrylamide gel electrophoresis (PAGE). The ligand guanine was introduced in the syringe, while the RNA into the sample cell at a final concentration of 10 μM and 1 μM respectively. The concentrations were determined by absorbance reading using ε260=12010 M^−1 cm^−1 (guanine) and ε260=711400 M^−1 cm^−1 (RNA). The buffer in the syringe and the sample cell contained 50 mM K^+ Hepes (pH 7.5), 100 mM KCl, and 10 mM MgCl2. Binding reactions were performed at 30° C. on a MicroCal iTC200 instrument (Malvern) with a reference power of 6 μcal/sec, an initial delay of 60 secs and a stirring speed of 750 rpm. Guanine was titrated into the sample cell in 16 injections (2.5 μl each). The injection rate was 0.5 μl/sec and the spacing between the injections was maintained at 120 sec. Data was baseline corrected and fitted to a single-site binding model to obtain association constant (KA), stoichiometry (n) and binding enthalpy, ΔH. The dissociation constant (KD) and the binding free energy, ΔG was obtained from the fitted parameters using the following relations. All data analysis was performed using the Origin ITC software.
The ITC results are reported as mean±standard deviation from three independent experiments.

In data set [3] the test system is lac Z expression. Kind of data set: β-galactosidase reporter assay (xpt-lacZ fusion). The data set is classed as cell-based, B. subtilis. To be noted: presence and absence of guanine; B. subtilis. On the procedure:
Kissing-loop mutants were analyzed to determine whether they can exert riboswitch activities by controlling transcription termination, given that the guanine binding was retained in all of them. To test this, a β-galactosidase reporter assay was performed in B.subtilis. […] The gene expression is repressed in wild-type due to the transcription termination in the presence of guanine. […] The fast kissing dynamics between the L2-L3 probably have a stabilizing effect on P1, and therefore an increase in the transcription termination is observed. […] This underscores that the L2-L3 dynamics are directly involved in the P1-helix formation, which affects the terminator hairpin downstream that ultimately results in an alteration of the riboswitch activities.
To assess if the aptamer mutants can exert a transcriptional control similar to the previously reported wild-type xpt-pbuX riboswitch, a xpt-lacZ fusion was constructed as described by Mandal et al., “Riboswitches control fundamental biochemical pathways in Bacillus subtilis and other bacteria”. Cell 113, 577-586 (2003). Briefly, nts −121 to +197 relative to the transcriptional start site of the xpt-pbuX operon from B. subtilis 1A1 (BGSC, Columbus, Ohio) was PCR amplified and cloned upstream of the lacZ reporter gene into pDG1661 vector. After confirming the cloned sequence, plasmid variants were integrated into the amyE locus of the 1A1 strain. Transformants were selected for double markers, specifically for chloramphenicol (5 μg/ml) resistance and sensitivity to spectinomycin (100 μg/ml). Selected B. subtilis colonies were subsequently grown in minimal media (25 g/L K2HPO4·3H2O, 6 g/L KH2PO4, 1 g/L sodium citrate, 0.2 g/l MgSO4·7H2O, 2 g/L Na2SO4, 50 μM FeCl3, 2 μM MnCl2, 50 μg/ml L-Tryptophan, 50 μg/ml L-Lysine, 50 μg/ml L-Methionine, 0.4 g/100 ml glucose, and 0.2 g/100 ml glutamate) at 37° C. with vigorous shaking. Purines were added at a final concentration of 0.1 mg/ml. Cells were harvested at mid-logarithmic growth phase (A600˜0.1-0.4), and resuspended in the above buffer for the reporter assay. The color development was recorded by measuring absorbance, A420 at the end of the reaction with appropriate controls. Data is represented in Miller Units calculated from the following relation:
[formula] where Δt is the total duration taken in the substrate cleavage by […], measured as absorbance, A420. The Miller Units shown in FIG. 4A represents mean±standard deviation from 3 independent experiments, wherein each independent experiment was performed in duplicate.

Setting [4] is: transition C′A (merged C′B and BA), F 6.1 pN, 5 mM Mg^2+.
The mark [5] stands for this setting: transition C′A (merged C′B and BA), F 6.1 pN, 3 mM Mg^2+.
[6] abbreviates: transition BA (P1 folding), F 8.5 pN, 3 mM Mg^2+.
[7] abbreviates: transition C′B (L2-L3 folding), F 8.5 pN, 3 mM Mg^2+.
The mark [8] stands for this setting: transition DC (P3 folding), F 12.0 pN, 3 mM Mg^2+.
Where [9] appears, read: transition ED (P2 folding), F 13.5 pN, 3 mM Mg^2+.

Numbering of substitutions follows the chain as printed. Names may count otherwise. “And” between values parts separate entries of the source, which are not always exact repeats. Identical values can stand only once.

B1: m3: m3 mutant guanine sensing aptamer RNA (SEQ ID NO: 4); G38 replaced with adenine in the L2 loop (nucleic acid)
chain: CACUCAUAUAAUCGCGUGGAUAUGACACGCAAGUUUCUACCGGGCACCGUAAAUGUCCGACUAUGGGUG
modifications: RNA, backbone and methylation of C not given here
notes: G38 replaced with adenine in the L2 loop
For B1, in data set [1] (transition C′A (merged C′B and BA), 5 mM Mg^2+, 200 nM G (rates at 6.1 pN)), the “Equilibrium force F^eq” value was 6 pN and 6.1 ± 0.02 pN. In data set [1] (setting [4]), the Folding rate kf turned out to be 0.8 ± 0.05 s⁻¹, the “Transition distance ΔX” value was found to be 12.5 ± 0.4 nm and the Unfolding rate ku turned out to be 0.69 ± 0.05 s⁻¹. For the same molecule, the “ΔG (0)” value in data set [1] (transition C′A (merged C′B and BA), from data at 6.1 pN, 5 mM Mg^2+) is on record as −12.7 ± 0.6 kBT. The “KD off relative to wild-type” value in data set [2] is approximately 18 fold. Moreover, the “lac Z expression / transcriptional control (in words)” value in data set [3] is reported as “completely de-repressed”.

B2: m2: m2 mutant guanine sensing aptamer RNA (SEQ ID NO: 3); G37A in L2 and C61U in L3 (nucleic acid)
chain: B1 chain with G24A, A25G, C48U
modifications: RNA, backbone and methylation of C not given here
notes: G37A in L2 and C61U in L3
Consider B2, for which, in data set [1] (transition C′A (merged C′B and BA), 3 mM Mg^2+, 200 nM G (rates at 6.1 pN)), the “Equilibrium force F^eq” value was 6 pN and 6.0 ± 0.03 pN. In addition, in data set [1] (setting [5]), the Folding rate kf was 0.53 ± 0.06 s⁻¹, the “Transition distance ΔX” value is recorded as 12.4 ± 0.4 nm and the Unfolding rate ku was determined as 0.8 ± 0.11 s⁻¹. Also, in data set [1] (transition C′A (merged C′B and BA), from data at 6.1 pN, 3 mM Mg^2+), the “ΔG (0)” value is −11.9 ± 0.6 kBT. Also, in data set [2], the “KD off relative to wild-type” value is reported as approximately 9 fold. In data set [2] (30° C., 50 mM K^+ Hepes pH 7.5, 100 mM KCl, 10 mM MgCl2, read-out: KD for guanine), the Kd – broadly, the equilibrium constant for the complex coming apart – amounted to 36 ± 0.2 nM. In addition, the “lac Z expression / transcriptional control (in words)” value in data set [3] is reported as “completely de-repressed”.

B3: m8: m8 mutant guanine sensing aptamer RNA (SEQ ID NO: 9); A19G and U77C in the P1 hairpin (nucleic acid)
chain: B1 chain with A6G, A25G, U64C
modifications: RNA, backbone and methylation of C not given here
notes: A19G and U77C in the P1 hairpin
For the molecule B3, the “Equilibrium force F^eq” value was found to be 8.8 ± 0.2 pN in data set [1] (transition BA (P1 folding), 3 mM Mg^2+, 200 nM G (rates at 8.5 pN)); 8.4 ± 0.3 pN in data set [1] (transition C′B (L2-L3 folding), 3 mM Mg^2+, 200 nM G (rates at 8.5 pN)); 11.8 ± 0.1 pN in data set [1] (transition DC (P3 folding), 3 mM Mg^2+, 200 nM G (rates at 12.0 pN)); 13.5 ± 0.03 pN in data set [1] (transition ED (P2 folding), 3 mM Mg^2+, 200 nM G (rates at 13.5 pN)). For the same molecule, the Folding rate kf in data set [1] (setting [6]) is 0.4 ± 0.05 s⁻¹; in data set [1] (setting [7]), 1.4 ± 0.2 s⁻¹; in data set [1] (setting [8]), 15.9 ± 0.4 s⁻¹; in data set [1] (setting [9]), 10.5 ± 0.4 s⁻¹. In addition, the Unfolding rate ku worked out at 0.2 ± 0.05 s⁻¹ in data set [1] (setting [6]), 1.5 ± 0.2 s⁻¹ in data set [1] (setting [7]), 17.5 ± 0.5 s⁻¹ in data set [1] (setting [8]) and 13.2 ± 0.5 s⁻¹ in data set [1] (setting [9]). The “Transition distance ΔX” value is 9.5 ± 0.3 nm in data set [1] (transition BA (P1 folding), F 8.5 pN, 3 mM Mg^2+, no helix width adjustment); 3.6 ± 0.2 nm in data set [1] (setting [7]); 7.7 ± 0.2 nm in data set [1] (setting [8]); 7.0 ± 0.2 nm in data set [1] (setting [9]). In addition, the “ΔG (0)” value was −14.3 kBT and −14.3 ± 0.7 kBT in data set [1] (transition BA (P1 folding), from data at 8.5 pN, 3 mM Mg^2+); −7.4 ± 0.5 kBT in data set [1] (transition C′B (L2-L3 folding), from data at 8.5 pN, 3 mM Mg^2+); −15.5 ± 0.6 kBT in data set [1] (transition DC (P3 folding), from data at 12.0 pN, 3 mM Mg^2+); −16.0 ± 0.7 kBT in data set [1] (transition ED (P2 folding), from data at 13.5 pN, 3 mM Mg^2+). For the same molecule, the “lac Z expression / transcriptional control (in words)” value in data set [3] is given as “stringent control”.

Values taken from patent US11905559B2, “Materials and methods for controlling gene expression” (priority 2016, dated 2024).
